The nanobody polyreactivity screen of Harvey et al. (2022)

Test: yeast display, Sf9 membrane polyspecificity reagent, FACS + sequencing; frameworks hold sequencing errors
Outline: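 A synthetic nanobody library was expressed on Saccharomyces cerevisiae BJ5465 by galactose induction for 36–48 hours. The library was stained for 1 hour at 4 °C with 10% biotinylated, detergent-solubilized Sf9 membrane reagent and enriched with streptavidin microbeads before FACS. Low and high (top ~1%) gates were set on anti-HA fluorescence for expression and streptavidin fluorescence for reagent binding, and each polyreactivity label reflects the gate of origin.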

Sequence	polyreactivity (PSR sort gate)
QVQLVESGGGLVQAGGSLRLSCAASGSIFPQYAMGWYRQAPGKERELVASITDSGGRTYYADSVKGRFTISRDNAKNTVYLQMHSLKPEDTAVYYCAAVSLWWSDYYFVEYDYWGQGTQVTVSS	high polyreactivity
QVQLVESGGGLVQAGGSLRLSCASSGSTFARNAMGWYRQAPGKERELVAAISWRGGSTYYADSVKGRFTISRDNAKNTVYLQKNSLKPEDTAVYYCAADGAYWRGTGYEYWGQGTQVTVSS	high polyreactivity
QVQLVESAGGLVQAGGSLRLSCAASGRTFRTYAMGWYRPAPVKERELVAAITSGGNTYYADSVKGRFTISRDNAKNTVYLQMNSLKPEDTAVYYCAAVQYFKVYYWGQGTQVTVSS	high polyreactivity
QDQLVESGGGLVQAGGSLRLICAASGRTFNRYGMGWNRQATGKERELVASITSGGSTNYADSVKGRFTISRDNAKNNVYLQMNSLKLEDTAVYYCAKRSIGRYPRTYDYWGQGTQVTVSS	low polyreactivity
QVQLVESGGGLFQAGGSLRLSCAASGLTFQRYDMGWYRQAPVKEIELVAAINYSGGRTYYADSVKGRFTISRDNAKNTVYLQMNSLKPEDTAVYYCAARVRNTYVYQSWDGMYYWGQGTQVTVSS	high polyreactivity
QVQLVESGGGLVQAGGSLRLSCAASGFTFRYYAMGWYRQAPGKERELVAAITGSGVNTYYADSVKGRFTISRDNAKNTVYLQMNSLKPEDTAVYYCAAESESDPLFERYYWGQGTQVTVSS	high polyreactivity
QVQLVESGGGLVQAGGSLRLSCAASGRTFSNYAIGWYRQAPGKEREFVSDISWSVGSTYYADSVKGRFTISRDNAKNTVYLQMNSLKPEDTALYYCATEVPVGGQRHLFKYYYWGQGTQVTVSS	low polyreactivity
QVQLVESGGGLVQAGGSLRLSCAASGRIFPKYAMGWYRQAPGKERELVAAISSSGGSTYYADSVKGRFTISRDNAKNTVYLQMNSLKPEDTAVYYCAAEQYSYGYTIYEYWGQGTQVTVSS	high polyreactivity
QVQLVESGGGLVQAGGSLRLSCAASGRIFFGNTMGWSRQAPGKERELVAVIDRSGGTTYYADSVKGRFTSSRDNAKNTVYLQMNSLKPEDTAVYYCAAIRRQKGLWDYYYWGQGTQVTVST	low polyreactivity
QVQLVESGGGLVQAGGSLRLSCAASGNTFRSYVMGWYRQAPGKERELVADISSGDGTNYADSVKGRFTISRDNAKNTVYLQMNSLKPEDTAVYYCAKDVYNFRTTHSYFTGYDSWGQGTQVTVSS	low polyreactivity
QVQLVESGGGLVQAGGSLRLSCAASGFTFPYYAMGWYRQSPGKERELVASISRRGGSTYYADSVKGRFTISRDNANNSVYLQMKSLKPEDTAVYYCAADGSRGRWTFDYWGQGTQVTVSS	high polyreactivity
QVQLVEKGGGLVQAGGSLRLICAASGYIIWPNAMGWYRQAPGKERELVASITRAGSTNYADSVKGRFTISRDNAKNTVYLQMNSLKPEDTAVYYSAAYFWGGYNYWGQGTQVTVSS	low polyreactivity
QVQLVESGGGLVQAGGSLRLSCAASGSTFYGYTMGWYRQAPGKERELVAVITSGGSTYYADSVKGRFTISRDNAKNTVYLQMNSLKPEDTAVYYCAKRYGYPAYGRPCRIGRTYDYWGQGTQVTVSS	low polyreactivity
QVQLVESGGGLVQAGGSLRLSCAASGFTFVPYAMGWYRQAPGKEREFVATISWSAGRTYYADSVKGRFTISRDNAKNTVYLQMNSLKPEDTAVYYCNARQWCQRYSKVRYDFWGQGTQVTVSS	high polyreactivity
QVQLVESGGGLVQAGGSLRLSCAASGSTFYLNAMGWYRQAPGKERELVAAISSGGNTNYADSVKGRFTISRDNAKNTVYLQMNSLKPEDTAVYYCAAVYLSWYGLGEYWGQGTQVTVSS	low polyreactivity
QVQLVESGGGLVQAGGSLRLSCAASGITFSRNAMGWYRQAPGKERELVATITSGGSTNYADSVKGRFTISRDNAKNTVYLQMNSLKPEDTAVYYCNAVWNTFISGRSYDYWGQGTQVTVSS	low polyreactivity

Sequence	polyreactivity (PSR sort gate)
QVQLVESGGGLVQAGGSLRLSCAASGNIFGFNAMGWYRQAPGKERELVAAINSGGSTYYADSVKGRFTISRDNAKNTLYLQMNSLKPEDTAVYYCAAVRGKYRFGFWGQGTQVTVSS	high polyreactivity
QVQLVESGGGLVQAGASLRLSCAASGRTFRYYDMGWSRQEPGKEREFVAAITWRGGSTYFADSVKGRFTISRDNAKNTVFLQMNSLKPEDTAVYYCATDSLRLYGGKRDLYFWGQGTQVTVSS	low polyreactivity
QVQLVESGGGLVQAGGSLRLSCASSGRTFPAYVMGWYREAPGKERDLVAAISRGGSTYYADSVKGRFTISRDNAKNTVYFQMNSLKPEDTAVFYCAARWSYSRYTGNDYSRLGKFYYWGQGTQVTVSS	high polyreactivity
QVQLVESGGGLVQAGGSLRLTCAASGSTIGGNPMVCYRHAPGKERELVAAITFSGGSTSYADSVKGRFTISRDNAKNTVYLQMNSLKPEDTAVYYCAASWVYPYDYWRQGTQVTVSS	low polyreactivity
QVQLVESGGGLVQAGGSLRLSCAASGRTFSIYAMGWYRQAPGKERELVASITNSDGSTYYADSVKGRFTISRDNAKNTVYLQMNSLKPEDTAVYYWNVDSGKYWSLWTYVQYDDYWGQGTQVTVSS	low polyreactivity
QVQLVESGGGLVHAGGSLRLSCAASGRTFYIYAMGWYRQAPGKERELVADITSGGSTYYADSVKGRFTISRDNAKNTVYLQMNSLKPEDTAVYYCAADWVTFYSYTEYDYWGQGTQVTVSS	low polyreactivity
QVQLVESGGGLVQAGGSLRLSCAASGSTFRSNAMGWYRQAPGKERELVAGISRRGGSTYYADSVTGRVTISRDNAKNTVYLQMNSLKPEDTAVDYCAASSRSFIRVYYWGQGTQVTVSS	high polyreactivity
QVQLVESVGRLVQAGGSLRLSCAASGIIFSVNAMGWYRQAPGKERELVAAITYSGGSTYYADSVKGRFTISRDNAKNTVYLQMNSLKPEDTAVYYCATSYYSSGTWSEYYYWCQGTQVTVSS	high polyreactivity
QVQLVESGGGLVQAGGSLRLSCAASGFTFGYYAMGWYRQAPGKERELVAGITTDGSTNYADSVKGRFTISRDNAKNTVYLQMNSLKPEDTAVYYCAADDLHWLNSKRYRGRDYWGQGTQVTVSS	low polyreactivity
QVQLVESGGGLVQAGGSLRLSCAASGSTFLWNAMGWYRQAPAKERELVAAISYSGGSTYYADSVKGRFTISRDNAMNTVYLQKNSLKPEDTAFYYCAKEWFYDPYPPGYDSWGQGPQVTVSS	low polyreactivity
QVQLVESGGGLVQAGGSLRLSCAASGRTFNYNAMGWYRQAPGTERELVAAINYNGGSTYYADSVKGRFTISRDNAKNTVYLQMNSLKPEDTAVYYCAADQSTVLDVGSWGQGTQVTVSS	low polyreactivity
QVQLVESGGGLVQAAGSLRLSCAASGRIFYSYAMGWYRQAPGKERELVAASSFSVGSTYYADSVKGRFTISRDNAKNTVYLQMNSLKPEDTAVYYCAASLGFPGYEYWGQGTQVTVSS	low polyreactivity
QVQLVESGGGLVQAGGSLRLSCAASGSTFYPYAMGWYRQAPGKERELVAAISSGGSTSYADSVKGRFTISRDNAKNTVYLQMNSLKPEDTEVYYCNASSPGAVPVYDYDYWGQGTQVTVSS	low polyreactivity
QVQLVESGGALVQAGGSLRLSCAASGITFARNAMGWYRQAPGKERELVAVISTRGGRTYYADSVKGRFTISRDNAKNTVYLQMNSLKPEDTAVYYCAASPDPYWRRMDYWGQGTQVTVSS	high polyreactivity
QVQLVESGGGLVQAGGSLRLSCAASGRTIFRYAMGWYTQAPGKERDLVAAITWSGGTTYYADSVKGRFTISRDNAKNTVYLQMNSLKPEDTAVYYCNARGLWYRRVVTYGYWGQGTQVTVSS	high polyreactivity
